How the values were obtained:
human CD3 (human) [1] = target: human CD3 (human) (UniProt P07766); experiment: Biacore; glofitamab formulations F2 and F5 after storage at 40°C, relative to initial
human CD3 (human) [2] = target: human CD3 (human) (UniProt P07766); experiment: Biacore; glofitamab formulations F1, F3 and F4 after storage at 40°C, relative to initial

Chain of UniProt P07766 (P07766 23-126): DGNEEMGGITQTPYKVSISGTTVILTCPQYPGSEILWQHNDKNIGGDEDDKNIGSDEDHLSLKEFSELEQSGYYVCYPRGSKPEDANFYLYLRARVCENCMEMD

- loss of CD3 binding (human CD3 (human) [1]): < 50%
- loss of CD3 binding (human CD3 (human) [2]): 10 to 20%
Substance: glofitamab (bispecific antibody)
